Measurements reported in patent US20240117061A1 (WUHAN YZY BIOPHARMA, published 2024).

T1: recombinant human BCMA-his fusion protein (ACRO Biosystem, Cat. No. BCA-H522y) (human, UniProt Q02223 1-54)
T1 construct: extracellular domain; Bought protein; also called huBCMA-his; hu BCMA-his; not shown: His tag
T1 sequence (looked up): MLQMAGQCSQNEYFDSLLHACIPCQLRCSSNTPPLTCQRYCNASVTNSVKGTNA

T2: human BCMA on cells (NCI-H929, U266B1, HEK293 huBCMA) (human, UniProt Q02223 1-184)
T2 construct: whole, on cells; also called cell surface BCMA antigen
T2 sequence (looked up): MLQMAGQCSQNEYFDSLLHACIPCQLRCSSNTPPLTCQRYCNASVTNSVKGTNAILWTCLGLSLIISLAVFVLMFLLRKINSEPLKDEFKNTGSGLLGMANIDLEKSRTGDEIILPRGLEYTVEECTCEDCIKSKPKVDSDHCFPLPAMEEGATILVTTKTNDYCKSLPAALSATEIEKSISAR


How the values were obtained:
[1] = biological target: T1, recombinant human BCMA-his fusion …; test: SPR (Biacore T200), anti-His capture on CM5, 1:1 fit
Protocol: In this example, the antigen-antibody binding kinetics and affinity were determined by the BIACORE method.
Procedures: The anti-histidine antibody (GE, His capture Kit, Cat. No. 28995056) was conjugated to the Sereis S Sensor Chip CMS to capture the test articles, thus acquiring the binding kinetic and affinity data of the antigen, as an analyte, to the test articles. The initial concentration for detecting the binding of the antigen and the test articles was 10 nM. […] The Start up flushing process (1×HBS-EP+buffer) was performed at least thrice before loading to equilibrate the system. The association and dissociation tendencies between the antigen and the test articles were detected. When the dissociation was completed, a regeneration reagent was loaded for regeneration before the detection of the next concentration was performed. After the detection was finished, the data were fitted by using a 1:1 Binding fitting mode in data analysis software (Biacore T200 Evaluation Software).

[2] = biological target: T1, recombinant human BCMA-his fusion …; test: competitive ELISA, coated huBCMA-his, competitor APRIL-biotin
Protocol: The 96-well microplate was treated with 100 μL of 0.5 μg/mL huBCMA-his in PBS and incubated overnight at 4° C. The plate was then washed thrice with PBS washing buffer containing 0.1% of Tween-20 and blocked with 300 μL of PBS containing 1% of BSA for 2 h. 100 μL of each BCMA antibody was added to the plate. […] The plate was incubated at 37° C. for 1 h, and unbound secondary antibody was washed with PBS washing buffer containing 0.1% of Tween-20. The TMB chromogenic solution was added at 100 μL/well. After a 5-min reaction at room temperature, 2 M H₂SO₄ was added at 100 μL/well to terminate the reaction. The microplate was placed on a microplate reader (Molecular Devices, SPECTRA Max plus 384) and the absorbance OD450 value was read at 450 nm wavelength.

[3] = biological target: T3, recombinant cynomolgus monkey cynoBCMA-his (ACRO Biosystem, Cat. No. BCA-052H7) (cynomolgus monkey, UniProt A0A2K5UD97 1-53); test: ELISA, coated antigen
T3 construct: extracellular domain; Bought protein; also called cynomolgus/rhesus macaque BCMA/TNFRSF17 protein; not shown: His tag
T3 sequence (A0A2K5UD97 entry or part of it): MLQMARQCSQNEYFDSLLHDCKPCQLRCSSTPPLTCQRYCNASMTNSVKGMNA
In short: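 Plates coated overnight at 4° C with 0.5 μg/mL His-tagged BCMA antigen (human or cynomolgus) in PBS pH 7.4, then blocked with 3% BSA. Humanized antibodies in 3-fold serial dilutions (11 points) were bound 1 h at room temperature. Detection used HRP anti-His antibody and TMB, read as OD450.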

[4] = biological target: T2, human BCMA on cells (NCI-H929, U266B1, …); test: flow cytometry on NCI-H929 cells
Protocol: Procedures: Preparation of cell suspensions: The cells were resuspended in PBS, and the cell density was adjusted to 2×10⁵ cells/well. Mouse antibodies were added to a 96-well plate at […] and serially 3-fold diluted from 3000 nM. The plate was incubated for 1 h at 4° C. 150 μL of precooled PBS containing 1% of FBS was added into the 96-well plate after the co-incubation with the primary antibody was finished. The mixtures were centrifuged at 300×g for 5 min and the supernatants were discarded. The above procedures were repeated once. The fluorescent secondary antibody PE […] (Biolegend, 409304) was added at 80 μL/well. The plate was incubated at 4° C. for 30 min. 150 μL of precooled PBS containing 1% of FBS was added into the 96-well plate after the co-incubation with the secondary antibody was finished. The mixtures were uniformly mixed with a pipette. The 96-well plate was centrifuged at 300×g for 5 min in a plate centrifuge and the supernatants were removed. The above procedures were repeated once. The cells were resuspended in 100 μL of PBS containing 1% of FBS and detected on a flow cytometry (BD Accuri™ C6).

[5] = biological target: T2, human BCMA on cells (NCI-H929, U266B1, …); test: flow cytometry on U266B1 cells
Protocol: Procedures: The cells were resuspended in PBS, and the cell density was adjusted to 2×10^5 cells/well. Human-mouse chimeric monoclonal antibodies were added to a 96-well plate at 50 μL/well and serially 3-fold diluted from 3000 nM to the 9th concentration. The plate was incubated for 1 h at 4° C. 150 μL of precooled PBS containing 1% of FBS was added into the 96-well plate after the co-incubation with the primary antibody was finished. The mixtures were centrifuged at 300×g for 5 min and the supernatants were discarded. The above procedures were repeated once. The fluorescent secondary antibody PE anti-human IgG Fc (Biolegend, 409304) was added at 80 μL/well. The plate was incubated at 4° C. for 30 min. 150 μL of precooled PBS containing 1% of FBS was added into the 96-well plate after the co-incubation with the secondary antibody was finished. The 96-well plate was centrifuged at 300×g for 5 min and the supernatants were discarded. The above procedures were repeated once. The cells were resuspended in 100 μL of PBS containing 1% of FBS and detected on a flow cytometry (BD Accuri™ C6).

Row | Binder | Kd [1] [nM] | koff [1] [s⁻¹] | kon [1] [M⁻¹ s⁻¹] | IC50 [2] [µg/mL] | EC50 [3] [nM] | EC50 [4] [nM] | EC50 [5] [nM]
1 | human-mouse chimeric antibody c-mAb3 (antibody, human IgG1, V domains shown, not shown: human IgG1 heavy chain constant region, GenBank No. AK303185.1; human kappa light chain constant region, GenBank No. MG815648.1) VH: EVQLQQSGPELVKPGASVKILCKASGYTITDYNMDWVKRSHGKSLEWIGNINPHNGGSIYNQKFKGKATLTVDKSSSTAFMELRSLTSEDTAVYYCARGDATLVLDYWGQGTSLTVSS VL: DIVLTQSPASLAVSLGQRATISCRASKSVSTSGLSYMHWYQQKPGQPPKVLIYLASNLESGVPARFSGSGSGTDFTLNIHPVEEEDAATYYCQHSRELPPTFGAGTKLELK | 0.38 | 0.00178 | 4.69e+06 | > 12 | 0.0248 | 8.25 | 81.5
2 | human-mouse chimeric antibody c-mAb2 (antibody, human IgG1, V domains shown, not shown: human IgG1 heavy chain constant region, GenBank No. AK303185.1; human kappa light chain constant region, GenBank No. MG815648.1) VH: QVQLQQSDAELVKPGTSVKISCKVSGYTFTDHTIHWMKQRPEQGLEWIGYIYPRNGNTKYNEKFKGKATLTADKSSSTAYMHLNSLTSEDSAVYFCARYDYDGYFDVWGTGTTVTVSS VL: DVVMTQTPLSLPVSLGDQASISCRSSQSHVHSDGHTYLHWYLQKPGQSPELLIYKVSNRFSGVPDRFSGSGSGTDFTLKISRVEAEDLGVYFCSQNTHFPWTFGGGTKLEIK | 1.45 | 0.0679 | 4.68e+07 | 0.0108 | – | 5.7 | 14.7
